The record followed here is the RNAGym collection of RNA variant scans (doi:10.1093/molbev/msab373).

B1: Azoarcus group I ribozyme (parent)
chain: GUGCCUUGCGCCGGGAAACCACGCAAGGGAUGGUGUCAAAUUCGGCGAAACCUAAGCGCCCGCCCGGGCGUAUGGCAACGCCGAGCCAAGCUUCGGCGCCUGCGCCGAUGAAGGUGUAGAGACUAGACGGCACCCACCUAAGGCAAACGCUAUGGUGAAGGCAUAGUCCAGGGAGUGGCGAAAGUCACACAAACCGG

In this data set the parent is B1. The experiment in a line: reverse-splicing fitness (ratio to wild type); higher = more active; in vitro selection; Mg2+ level not given. In a few lines: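 An in vitro group I ribozyme library with randomized positions was T7-transcribed and gel-purified. In triplicate, 10 pmol RNA in EPPS pH 7.5 was reacted with 50 pmoles of a 30-nt RNA substrate for 1 h at 37 °C across several added MgCl2 levels (1–48 mM), then stopped with EDTA. Products were reverse transcribed from a substrate-complementary primer, PCR-amplified and sequenced (HiSeq 4000). Fitness is a variant's read proportion after selection over that before, normalised to wild type.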
For the variant GUGCCUUGCGCCGGGAAACCACGCAAGGGAUGGUGUCAAAUUCGGCGAAACCUAAGCGCCCGCCCGGGCGUAUGGCAACGCUGAGCCAAGCUUCGGCGCCUGCGCCGAUGCAGGUGUAGGGACUAGACGGCACCCACCUAAGGCUAACGGUAUGGUGAAGGCAUAGUCGAGGGAGUGGCGAAAGUCACACAAACCGG [C82U A111C A120G A145U C150G C169G], the reverse-splicing fitness was 0.00689.

Regarding GUGCCUUGCGCCGGGAAACCACGCAAGGGAUGGUGUCAAAUUCGGCGAAACCUAAGCGCCCGCCCGGGCGUAUGGCAACGCUGAGCCAAGCUUCGGCGCCUGCGCCGAUGCAGGUGUAGGGACUAGACGGCACCCACCUAAGGCUAACGGUAUGGUGAAGGCAUAGUCAAGGGAGUGGCGAAAGUCACACAAACCGG [C82U A111C A120G A145U C150G C169A], the reverse-splicing fitness stood at 0.00828.

Regarding GUGCCUUGCGCCGGGAAACCACGCAAGGGAUGGUGUCAAAUUCGGCGAAACCUAAGCGCCCGCCCGGGCGUAUGGCAACGCUGAGCCAAGCUUCGGCGCCUGCGCCGAUGCAGGUGUAGGGACUAGACGGCACCCACCUAAGGCUAACGGUAUGGUGAAGGCAUAGUCUAGGGAGUGGCGAAAGUCACACAAACCGG [C82U A111C A120G A145U C150G C169U], the reverse-splicing fitness was 0.00734.

GUGCCUUGCGCCGGGAAACCACGCAAGGGAUGGUGUCAAAUUCGGCGAAACCUAAGCGCCCGCCCGGGCGUAUGGCAACGCUGAGCCAAGCUUCGGCGCCUGCGCCGAUGCAGGUGUAGGGACUAGACGGCACCCACCUAAGGCUAACGGUAUGGUGAAGGCAUAGUCAAGGGAGAGGCGAAAGUCACACAAACCGG [C82U A111C A120G A145U C150G C169A U176A]: the reverse-splicing fitness came out at 0.0108.

For GUGCCUUGCGCCGGGAAACCACGCAAGGGAUGGUGUCAAAUUCGGCGAAACCUAAGCGCCCGCCCGGGCGUAUGGCAACGCUGAGCCAAGCUUCGGCGCCUGCGCCGAUGCAGGUGUAGGGACUAGACGGCACCCACCUAAGGCUAACGGUAUGGUGAAGGCAUAGUCAAGGGAGCGGCGAAAGUCACACAAACCGG [C82U A111C A120G A145U C150G C169A U176C], the reverse-splicing fitness turned out to be 0.00893.

As for GUGCCUUGCGCCGGGAAACCACGCAAGGGAUGGUGUCAAAUUCGGCGAAACCUAAGCGCCCGCCCGGGCGUAUGGCAACGCUGAGCCAAGCUUCGGCGCCUGCGCCGAUGCAGGUGUAGGGACUAGACGGCACCCACCUAAGGCUAACGGUAUGGUGAAGGCAUAGUCAAGGGAGGGGCGAAAGUCACACAAACCGG [C82U A111C A120G A145U C150G C169A U176G], the reverse-splicing fitness turned out to be 0.00541.

As to GUGCCUUGCGCCGGGAAACCACGCAAGGGAUGGUGUCAAAUUCGGCGAAACCUAAGCGCCCGCCCGGGCGUAUGGCAACGCUGAGCCAAGCUUCGGCGCCUGCGCCGAUGCAGGUGUAGGGACUAGACGGCACCCACCUAAGGCUAACGGUAUGGUGAAGGCAUAGUCGAGGGAGCGGCGAAAGUCACACAAACCGG [C82U A111C A120G A145U C150G C169G U176C], the reverse-splicing fitness is 0.00446.

Consider GUGCCUUGCGCCGGGAAACCACGCAAGGGAUGGUGUCAAAUUCGGCGAAACCUAAGCGCCCGCCCGGGCGUAUGGCAACGCUGAGCCAAGCUUCGGCGCCUGCGCCGAUGCAGGUGUAGGGACUAGACGGCACCCACCUAAGGCUAACGGUAUGGUGAAGGCAUAGUCGAGGGAGAGGCGAAAGUCACACAAACCGG [C82U A111C A120G A145U C150G C169G U176A], for which the reverse-splicing fitness was 0.0063.

Consider GUGCCUUGCGCCGGGAAACCACGCAAGGGAUGGUGUCAAAUUCGGCGAAACCUAAGCGCCCGCCCGGGCGUAUGGCAACGCUGAGCCAAGCUUCGGCGCCUGCGCCGAUGCAGGUGUAGGGACUAGACGGCACCCACCUAAGGCUAACGGUAUGGUGAAGGCAUAGUCGAGGGAGGGGCGAAAGUCACACAAACCGG [C82U A111C A120G A145U C150G C169G U176G], for which the reverse-splicing fitness was 0.00386.

For GUGCCUUGCGCCGGGAAACCACGCAAGGGAUGGUGUCAAAUUCGGCGAAACCUAAGCGCCCGCCCGGGCGUAUGGCAACGCUGAGCCAAGCUUCGGCGCCUGCGCCGAUGCAGGUGUAGGGACUAGACGGCACCCACCUAAGGCUAACGGUAUGGUGAAGGCAUAGUCUAGGGAGCGGCGAAAGUCACACAAACCGG [C82U A111C A120G A145U C150G C169U U176C], the reverse-splicing fitness was 0.0106.

As for GUGCCUUGCGCCGGGAAACCACGCAAGGGAUGGUGUCAAAUUCGGCGAAACCUAAGCGCCCGCCCGGGCGUAUGGCAACGCUGAGCCAAGCUUCGGCGCCUGCGCCGAUGCAGGUGUAGGGACUAGACGGCACCCACCUAAGGCUAACGGUAUGGUGAAGGCAUAGUCUAGGGAGAGGCGAAAGUCACACAAACCGG [C82U A111C A120G A145U C150G C169U U176A], the reverse-splicing fitness stood at 0.00881.

For GUGCCUUGCGCCGGGAAACCACGCAAGGGAUGGUGUCAAAUUCGGCGAAACCUAAGCGCCCGCCCGGGCGUAUGGCAACGCUGAGCCAAGCUUCGGCGCCUGCGCCGAUGCAGGUGUAGGGACUAGACGGCACCCACCUAAGGCUAACGGUAUGGUGAAGGCAUAGUCUAGGGAGGGGCGAAAGUCACACAAACCGG [C82U A111C A120G A145U C150G C169U U176G], the reverse-splicing fitness was found to be 0.00419.

In the case of GUGCCUUGCGCCGGGAAACCACGCAAGGGAUGGUGUCAAAUUCGGCGAAACCUAAGCGCCCGCCCGGGCGUAUGGCAACGCUGAGCCAAGCUUCGGCGCCUGCGCCGAUGCAGGUGUAGGGACUAGACGGCACCCACCUAAGGCUAACGGUAUGGUGAAGGCAUAGUCCAGGGAGCGGCGAAAGUCACACAAACCGG [C82U A111C A120G A145U C150G U176C], the reverse-splicing fitness was determined as 0.0141.

In the case of GUGCCUUGCGCCGGGAAACCACGCAAGGGAUGGUGUCAAAUUCGGCGAAACCUAAGCGCCCGCCCGGGCGUAUGGCAACGCUGAGCCAAGCUUCGGCGCCUGCGCCGAUGCAGGUGUAGGGACUAGACGGCACCCACCUAAGGCUAACGGUAUGGUGAAGGCAUAGUCCAGGGAGAGGCGAAAGUCACACAAACCGG [C82U A111C A120G A145U C150G U176A], the reverse-splicing fitness turned out to be 0.00768.

Take GUGCCUUGCGCCGGGAAACCACGCAAGGGAUGGUGUCAAAUUCGGCGAAACCUAAGCGCCCGCCCGGGCGUAUGGCAACGCUGAGCCAAGCUUCGGCGCCUGCGCCGAUGCAGGUGUAGGGACUAGACGGCACCCACCUAAGGCUAACGGUAUGGUGAAGGCAUAGUCCAGGGAGGGGCGAAAGUCACACAAACCGG [C82U A111C A120G A145U C150G U176G]: the reverse-splicing fitness worked out at 0.00282.
